From publication PMC4562626

Experiment: TIRF total EGFP fluorescence in adhered membrane
Details: glycan lost; control: wild type Kv1.1-EGFP

B1: Kv1.1: N207Q (protein)
parent chain: MTVMSGENADEASAAPGHPQDGSYPRQADHDDHECCERVVINISGLRFETQLKTLAQFPNTLLGNPKKRMRYFDPLRNEYFFDRNRPSFDAILYYYQSGGRLRRPVNVPLDMFSEEIKFYELGEEAMEKFREDEGFIKEEERPLPEKEYQRQVWLLFEYPESSGPARVIAIVSVMVILISIVIFCLETLPELKDDKDFTGTIHRIDNTTVIYTSNIFTDPFFIVETLCIIWFSFELVVRFFACPSKTDFFKNIMNFIDIVAIIPYFITLGTEIAEQEGNQKGEQATSLAILRVIRLVRVFRIFKLSRHSKGLQILGQTLKASMRELGLLIFFLFIGVILFSSAVYFAEAEEAESHFSSIPDAFWWAVVSMTTVGYGDMYPVTIGGKIVGSLCAIAGVLTIALPVPVIVSNFNYFYHRETEGEEQAQLLHVSSPNLASDSDLSRRSSSTISKSEYMEIEEDMNNSIAHYRQANIRTGNCTATDQNCVNKSKLLTDV
With B1 the expression_or_secretion was “no change”.
